{
  "source": "the nanobody polyreactivity screen of Harvey et al. (2022)",
  "data": [
    {"assay": "yeast display, Sf9 membrane polyspecificity reagent, FACS + sequencing; frameworks hold sequencing errors", "procedure,_shortened": "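After 36–48 hours of galactose induction, yeast (Saccharomyces cerevisiae BJ5465) displaying a synthetic nanobody library were stained at 4 °C for 1 hour with 10% biotinylated, detergent-solubilized Sf9 membrane reagent. Streptavidin microbeads enriched the stained cells before FACS sorting into low and high (top ~1%) gates on anti-HA and streptavidin fluorescence. Each clone's polyreactivity label reflects its gate of origin.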", "values": [
      {"sequence": "QVQLVESGGGLVQAGGSLRLSCAASGSIFYPNAMGWYRQAPGKERELVAAITVGGGRTYYADSVKGRFTISRDNAKNTVYLQMNSLKPEDTAVYYCAAQEIVRYPRFDKYDYWGQGTQVTVSS", "polyreactivity (PSR sort gate)": "low polyreactivity"},
      {"sequence": "QVQLVESGGGLVQAGGSLRLSCAASGSIFYPNAMGWYRQAPGKERELVATIRRRGGSTYYADSVKGRFTISRDNAKNTVYLQMHSLKPEDTAVDYCAVGSPTPYRALDLYDYWGQGTQVTVSS", "polyreactivity (PSR sort gate)": "high polyreactivity"},
      {"sequence": "QVQLVESGGGLVQAGGSLRLSCAASGSIFYPNAMRWYRQAPGKQRELVAVITGGATTYYADSVKGRFTISRDYAKNTVYLQRNSLNPEDTAVDYCAADSAENVYRGYDWGQGTQVTVSS", "polyreactivity (PSR sort gate)": "low polyreactivity"},
      {"sequence": "QVQLVESGGGLVQAGGSLRLSCAASGSIFYPNVMGWDRQAPGKERELVAAIRTSGGSTYYADSVKGRFTISRDNAKNTVYLQMNSLKPEDTAVYYCAADYIYVKYEYWGQGTQVTVSS", "polyreactivity (PSR sort gate)": "high polyreactivity"},
      {"sequence": "QVQLVESGGGLVQAGGSLRLSCAASGSIFYPNVMGWYRQAPGKERELVATISWSGGNTYYADSVKGRFTISRDNAKNTVYLQMNSLKPEDTAVYYCAADQWSQDYDYWGQGTQVTVSS", "polyreactivity (PSR sort gate)": "low polyreactivity"},
      {"sequence": "QVQLVESGGGLVQAGGSLRLSCAASGSIFYPYAMGWYRQANGKERELDAAITWRGGRTYYADSVKGRFTISRDNAKNTVYLQMNSLKPEDTAVYYCAAGWLTRSYEYDYWGQGTQVTVSS", "polyreactivity (PSR sort gate)": "high polyreactivity"},
      {"sequence": "QVQLVESGGGLVQAGGSLRLSCAASGSIFYPYAMGWYRQAPGKERELVAAINWGGTITYYADSVKGRFTISRDNAKNTVYLQMNSLKPEDTAVYYCAAKYKGYRYYYWGQGTQVTVSS", "polyreactivity (PSR sort gate)": "high polyreactivity"},
      {"sequence": "QVQLVESGGGLVQAGGSLRLSCAASGSIFYPYAMGWYRQAPGKERELVAAIRFSGGRTYYADSVKGRFTISRDNAKNTVYLQMNSLKPEDTAVYYCAAEYYGIYSPYDYWGQGTQVTVSS", "polyreactivity (PSR sort gate)": "high polyreactivity"},
      {"sequence": "QVQLVESGGGLVQAGGSLRLSCAASGSIFYPYAMGWYRQAPGKERELVAAITTGGGSTYADSVKGRFTISRDNAKNTVYLQMNSLKPEDTAVYYCNTDEYDIGSVYTLWEYDYWGQGTQVTVSS", "polyreactivity (PSR sort gate)": "low polyreactivity"},
      {"sequence": "QVQLVESGGGLVQAGGSLRLSCAASGSIFYPYAMGWYRQAPGKERELVAGISRSGASTYYADSVKGRFTISRDNAKNTVYLQMNSLKPEDTAVYYCAADDWTRNYWGQGTEVTVSS", "polyreactivity (PSR sort gate)": "low polyreactivity"},
      {"sequence": "QVQLVESGGGLVQAGGSLRLSCAASGSIFYPYAMGWYRQAPGKERELVARISSAGGTYYADSVKGRFTISRDNAKNTVYLQMNSLKPEDTAVYYCAAQARYRYYYWGQGTQVTVSS", "polyreactivity (PSR sort gate)": "high polyreactivity"},
      {"sequence": "QVQLVESGGGLVQAGGSLRLSCAASGSIFYQYAMGWYRQAPGKERELVAAISRSGGSTYYADSVKGRFTISRDNAKNTVYLQMISLKPEDTAVYYCAARAVRAAYDYWGLGTQVTVSS", "polyreactivity (PSR sort gate)": "low polyreactivity"},
      {"sequence": "QVQLVESGGGLVQAGGSLRLSCAASGSIFYQYAMGWYRQAPGKERELVARITWSSGSTYYADSVKGRFTISRDNAKNTVYLQMNSLKPEDTAVYYCNVVYTGTSYIYYYWGQGTQVTVSS", "polyreactivity (PSR sort gate)": "high polyreactivity"},
      {"sequence": "QVQLVESGGGLVQAGGSLRLSCAASGSIFYRNAMGWYRQAPGKERELGAAISWSAARTYYADSVKGRFTISRDNAKNTVYLQMNSLKPEDTAVYYCAAYQTSRYKYEYWGQGTQVTVSS", "polyreactivity (PSR sort gate)": "high polyreactivity"},
      {"sequence": "QVQLVESGGGLVQAGGSLRLSCAASGSIFYRNAMGWYRQAPGKERELVAAISARGGRTNYADSVKGRFTISRDNAKNTVYLQMNSLKPEDTAVYYCNTADSWYHRSQAYDYWGQGTQVTVSS", "polyreactivity (PSR sort gate)": "high polyreactivity"},
      {"sequence": "QVQLVESGGGLVQAGGSLRLSCAASGSIFYRNAMGWYRQAPGKERELVAAISRGGSTNYADSVKGRFTIERDNAKNTVYLQMNSLKPEDTAVYYCNALYHGDYDYWGQGTQVTVSS", "polyreactivity (PSR sort gate)": "high polyreactivity"},
      {"sequence": "QVQLVESGGGLVQAGGSLRLSCAASGSIFYRNAMGWYRQAPGKERELVAAISSDGSTNYADSVKGRFTISRDNAMNTVDLQMNSLKPEDTAVYYCAAPWTQILDYWGQGTQVTVSS", "polyreactivity (PSR sort gate)": "low polyreactivity"},
      {"sequence": "QVQLVESGGGLVQAGGSLRLSCAASGSIFYRNAMGWYRQAPGKERELVAGITWRGGRTYYADSVKGRFTISRDNAKNTVYLQMNSLKPEDTAVYYCAATYYWYGHPSRRYDYWGQGTQVTVSS", "polyreactivity (PSR sort gate)": "high polyreactivity"},
      {"sequence": "QVQLVESGGGLVQAGGSLRLSCAASGSIFYRNGMGWYRQAPGKERELVAAISGRGGSTNYADSVKGRFTISRDNAKNTVYLQMNSLKPEDTAVYYCNRYGVSNILVRGGYWGQGTQVTVSS", "polyreactivity (PSR sort gate)": "high polyreactivity"},
      {"sequence": "QVQLVESGGGLVQAGGSLRLSCAASGSIFYRNVMGWYRPAPGKERELVAVITSDGSTNYADSVKGRFTISRDNAKNTVYLQMNSLKPEVTAVYYCNAHYAFYGPGYPIYWIYEYWGQGTQVTVSS", "polyreactivity (PSR sort gate)": "low polyreactivity"},
      {"sequence": "QVQLVESGGGLVQAGGSLRLSCAASGSIFYRNVMGWYRQAPGKERELVAAISQRGGSTYYADSVKGRFTISRDKAKNTVFLQMNSLKPEDTAVYYCNAASRGAGTSIWSWYDLWGQGTQVTVSS", "polyreactivity (PSR sort gate)": "low polyreactivity"},
      {"sequence": "QVQLVESGGGLVQAGGSLRLSCAASGSIFYRNVMGWYRQAPGKERELVATISRGGTTNYADSVKGRFTISRDNAKNTVYLQMNSLKPEDTAVYYCALKQSYYFGSYFYGHEYYYWGPGTQVTVSS", "polyreactivity (PSR sort gate)": "low polyreactivity"},
      {"sequence": "QVQLVESGGGLVQAGGSLRLSCAASGSIFYRYALGWYRQAPGKERELVAALSYSGGSTYYADSVKGRFTISRDNAKNTVYLQMNSLKPQETAVYYCANDSPPPISDYSRYYGYGYWGQGTQVTVSS", "polyreactivity (PSR sort gate)": "low polyreactivity"},
      {"sequence": "QVQLVESGGGLVQAGGSLRLSCAASGSIFYRYAMGWNRQAPGKEKELVAAISRSGGRTYYADSVKGRFTISRDNAMNTVYLQMNSLKPEDTAVYYCAAESTVGTDLGGYSWGQGSQVTVSS", "polyreactivity (PSR sort gate)": "high polyreactivity"},
      {"sequence": "QVQLVESGGGLVQAGGSLRLSCAASGSIFYRYAMGWYRQAPGKERELVAAINDSGGGTYYADSVKGRFTISRDNAKNTVYLQMNSLKPEDTAVYYCAAATHNKHTARDDYWGQGTQVTVSS", "polyreactivity (PSR sort gate)": "low polyreactivity"},
      {"sequence": "QVQLVESGGGLVQAGGSLRLSCAASGSIFYRYAMGWYRQAPGKERELVAAISTAGSTNYADSVKGRFTISRDNAKNTVYLQINSPKPEDTAVYYCAAKSYRGRTQRSYGYWGQGTQVTVSS", "polyreactivity (PSR sort gate)": "low polyreactivity"},
      {"sequence": "QVQLVESGGGLVQAGGSLRLSCAASGSIFYRYAMGWYRQAPGKERELVAGITRGGSTNYADSVKGRFTISRDNAKNTVYLQMNSLKPEDTAVYYCAARSYVYVHYYYWGQGTQVTVSS", "polyreactivity (PSR sort gate)": "high polyreactivity"},
      {"sequence": "QVQLVESGGGLVQAGGSLRLSCAASGSIFYRYAMGWYRQAPGKVRELVAAISSGSSTHYADSVKGRFTISRDNAKNTVYLQMNSLKPEDTAVYYCAARYRAYTSTRRFDYWGQGTQVTVSS", "polyreactivity (PSR sort gate)": "high polyreactivity"},
      {"sequence": "QVQLVESGGGLVQAGGSLRLSCAASGSIFYSNAMGWYRQAPGKERELVAAIRRSGGSTYYADSVKGRFTISRDNAKNTVYLQMNSLKPEDTEVYYCAARYSGTYSFYLSVGSRGYNYWGQGTQVTVSS", "polyreactivity (PSR sort gate)": "high polyreactivity"},
      {"sequence": "QVQLVESGGGLVQAGGSLRLSCAASGSIFYSNTMGWYRQAPGKERELVAAISRGGSTYYADSVKGRFTISRDNAKNTVYLQMNSLKPEDTAVYYCAARYRWAPAYDYWGQGTQVTVSS", "polyreactivity (PSR sort gate)": "high polyreactivity"},
      {"sequence": "QVQLVESGGGLVQAGGSLRLSCAASGSIFYSYAMGWYRQAHGKERELVAAITSGDITYYADSVKGRFTISRDNAKNTVYLQMNSLKPEDTAVYYCAAESYAWWDKQFLYRYDYWGQGTQVTVSS", "polyreactivity (PSR sort gate)": "low polyreactivity"},
      {"sequence": "QVQLVESGGGLVQAGGSLRLSCAASGSIFYSYAMGWYRQAPGKEREFVAAISQLGGSTYYADSVKGRFTISRDNAKNTVYLQMNSLKPEDTAVYSCNAVYRRAQFLYGYDYWGQGTQVTVSS", "polyreactivity (PSR sort gate)": "high polyreactivity"},
      {"sequence": "QVQLVESGGGLVQAGGSLRLSCAASGSIFYSYAMGWYRQAPGKERELVAAISWDASTYYADSVKGRFTISRDNAKNTVYLQMKSLKTEDTAVYYCNADIPYYFVFDAYDYWGQGTQVTVSS", "polyreactivity (PSR sort gate)": "low polyreactivity"},
      {"sequence": "QVQLVESGGGLVQAGGSLRLSCAASGSIFYSYAMGWYRQAPGKERELVAAITSNAGGITRYADSVKGRFTISRDNAKNTVYLQMNSLKPEDTAVYYCAARGHYYTRYWGQGTQVTVSS", "polyreactivity (PSR sort gate)": "high polyreactivity"},
      {"sequence": "QVQLVESGGGLVQAGGSLRLSCAASGSIFYSYAMGWYRQAPGKERELVADITITGSTYYADSVKGRFTISRDNAKNTVYLQMNSLKPEDTAVYYCTAVLAPGGYDYWGQGTQVTVSS", "polyreactivity (PSR sort gate)": "low polyreactivity"},
      {"sequence": "QVQLVESGGGLVQAGGSLRLSCAASGSIFYTNAMGWYRPAPGKERELVAAIRWSGGRTYYADSVKGRFTISRDNAKNTVYLQMNSLKPEDTAVYYCNVVVRYPSAYDYWGQGTQVTVSS", "polyreactivity (PSR sort gate)": "high polyreactivity"},
      {"sequence": "QVQLVESGGGLVQAGGSLRLSCAASGSIFYTNAMGWYRQAPGKEREFVAGITRRGTSTNYADSVKGRFTISRDKAKNTVYLQMNSQKPEDTAVYYCNARYYLYWGQGTQVTVSS", "polyreactivity (PSR sort gate)": "low polyreactivity"},
      {"sequence": "QVQLVESGGGLVQAGGSLRLSCAASGSIFYTNAMGWYRQAPGKERELVAVITASGGSTYYADSVKGRFTISRDNAKNTVYLQMNSLKPEDTSVYYCAADPVFNYDYWGQGTQVTVSS", "polyreactivity (PSR sort gate)": "low polyreactivity"},
      {"sequence": "QVQLVESGGGLVQAGGSLRLSCAASGSIFYTNVMGWYRQAPGKERELVAAISSRGGSTYYADSVKGRFTISRDNAKNTVYLQMNSLKPEDTAVYYCAARFLHYYPTRGYTYDYWGQGTQVTVSS", "polyreactivity (PSR sort gate)": "high polyreactivity"},
      {"sequence": "QVQLVESGGGLVQAGGSLRLSCAASGSIFYTYAMGWYRQAPWKEREFVAASTGTGVRTYYADSVKGRFTISRDNAKNTVYLPMNSLKPEDTAVYYCAAVSAYRWIGLTNYSTYGYWGQGTQVTVSS", "polyreactivity (PSR sort gate)": "high polyreactivity"},
      {"sequence": "QVQLVESGGGLVQAGGSLRLSCAASGSIFYVNAMGWYRQAPGKDRELVAAISVRGGRTYYADSVKGRFTISRDNAKNTVYLQLNSLKPEDTAVYYCATRISTVGRYDYWGQGTQVTVSS", "polyreactivity (PSR sort gate)": "high polyreactivity"}
    ]}
  ]
}
